Among the data in the Human Domainome abundance scans (Beltran et al. 2025) are abundance fitness values, retold here.

± gives the uncertainty stated by the source.

The nature of the series: abundance fitness (aPCA) (normalised: wild type 0, dead -1); higher = more abundant; growth selection in yeast, the domain comes from the species named. To be noted: Homo sapiens.
As for “Ventral anterior homeobox 1 F119A, Q5SQQ9”, the abundance fitness was -0.74 ± 0.21.
“Ventral anterior homeobox 1 F119E, Q5SQQ9” yielded an abundance fitness of -1.16 ± 0.3.
Take “Ventral anterior homeobox 1 F119G, Q5SQQ9”: the abundance fitness is -0.857 ± 0.16.
Next, “Ventral anterior homeobox 1 F119K, Q5SQQ9”: -0.837 ± 0.31; “Ventral anterior homeobox 1 F119N, Q5SQQ9”: -0.658 ± 0.32; “Ventral anterior homeobox 1 F119P, Q5SQQ9”: -0.978 ± 0.34.
To “Ventral anterior homeobox 1 F119Q, Q5SQQ9” belongs -0.727 ± 0.39.
“Ventral anterior homeobox 1 F119R, Q5SQQ9” returned an abundance fitness of -0.88 ± 0.17.
Next, “Ventral anterior homeobox 1 F119S, Q5SQQ9”: -0.64 ± 0.18; “Ventral anterior homeobox 1 F119T, Q5SQQ9”: -0.856 ± 0.29.
Next, “Ventral anterior homeobox 1 L115D, Q5SQQ9”: -0.822 ± 0.4; “Ventral anterior homeobox 1 L115E, Q5SQQ9”: -0.719 ± 0.29; “Ventral anterior homeobox 1 L115G, Q5SQQ9”: -0.763 ± 0.16.
To “Ventral anterior homeobox 1 L115K, Q5SQQ9” belongs -0.821 ± 0.41; to “Ventral anterior homeobox 1 L115N, Q5SQQ9”, -0.637 ± 0.35.
“Ventral anterior homeobox 1 L115R, Q5SQQ9” gave an abundance fitness of -0.918 ± 0.16.
Substance “Ventral anterior homeobox 1 Q111A, Q5SQQ9” gave an abundance fitness of -0.226 ± 0.13.
Next, “Ventral anterior homeobox 1 Q111C, Q5SQQ9”: -0.214 ± 0.18.
To “Ventral anterior homeobox 1 Q111D, Q5SQQ9” belongs -0.564 ± 0.18.
Next, “Ventral anterior homeobox 1 Q111E, Q5SQQ9”: -0.393 ± 0.17; “Ventral anterior homeobox 1 Q111F, Q5SQQ9”: -0.954 ± 0.32.
“Ventral anterior homeobox 1 Q111G, Q5SQQ9” had an abundance fitness of -0.715 ± 0.11.
To “Ventral anterior homeobox 1 Q111H, Q5SQQ9” belongs -0.355 ± 0.17; to “Ventral anterior homeobox 1 Q111I, Q5SQQ9”, -0.231 ± 0.27; to “Ventral anterior homeobox 1 Q111K, Q5SQQ9”, -0.599 ± 0.28.
To “Ventral anterior homeobox 1 Q111L, Q5SQQ9” belongs -0.807 ± 0.17; to “Ventral anterior homeobox 1 Q111M, Q5SQQ9”, -0.31 ± 0.19.
“Ventral anterior homeobox 1 Q111N, Q5SQQ9” displayed an abundance fitness of -0.262 ± 0.24.
To “Ventral anterior homeobox 1 Q111P, Q5SQQ9” belongs -0.716 ± 0.21; to “Ventral anterior homeobox 1 Q111R, Q5SQQ9”, -0.732 ± 0.12.
Consider “Ventral anterior homeobox 1 Q111S, Q5SQQ9”, for which the abundance fitness is -0.727 ± 0.14.
“Ventral anterior homeobox 1 Q111T, Q5SQQ9” yielded an abundance fitness of -0.068 ± 0.16.
Next, “Ventral anterior homeobox 1 Q111V, Q5SQQ9”: -0.048 ± 0.12.
For the substance “Ventral anterior homeobox 1 Y113D, Q5SQQ9”, the abundance fitness is 0.287 ± 0.2.
Take “Ventral anterior homeobox 1 Y113E, Q5SQQ9”: the abundance fitness was found to be 0.209 ± 0.17.
“Ventral anterior homeobox 1 Y113G, Q5SQQ9” displayed an abundance fitness of 0.01 ± 0.093.
Regarding “Ventral anterior homeobox 1 Y113H, Q5SQQ9”, the abundance fitness is -0.096 ± 0.25.
To “Ventral anterior homeobox 1 Y113K, Q5SQQ9” belongs -0.004 ± 0.24; to “Ventral anterior homeobox 1 Y113N, Q5SQQ9”, 0.168 ± 0.38; to “Ventral anterior homeobox 1 Y113R, Q5SQQ9”, -0.012 ± 0.097.
